From a protein production outcome set (Wang et al. 2014)

Assay: label from the status in PepcDB records
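Further: failed if final PepcDB status was selected cloned or expressed and not failed if soluble or beyond.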

MQEKGNISIHTENIFPIIKKFLYSDHEIFLRELVSNAVDATQKLKRLAALGEYPGELGDTKVTVSVNKEAGTITITDRGIGMTAEEIKKYINQIAFSGATEFIEKYKDKTDTNQIIGHFGLGFYSAFMVSSNVEINTLSYQPNSKAAHWICDGSTEFEIKLSDKAERGSEITLHIAEDSLEFLETSRIHSILDKYCRFLPVEIEFEGEIINNPSPLWTKQPSELKDEDYIAFYKELYPMSEDPLFWIHLNVDYPFSLTGVLYFPKLKKDFEFQRNKIQLYSRQVFITDEVKDIVPEFLMLLHGVIDSPDIPLNVSRSFLQADGNVKKINSHITKKVADKLNELFNNDRAGFEAKWDDIGMFVKYGMISEEKFYDKAKNFCLLKNTDNALSTIEEYEQKIKPIQTDKNDKLVYLYSNNAVAQDIFIQAAKKKQYDVLLLDSVIDSHFLGQLESKLEKVQFKRIDSESVDKLIEKDEPKLSLLTKEQETQAEELFKKVVNNGKVIIKLEHLATDDMPVTIVISEFMRRMKDMAATSGQSMFGGFELTHEVVVNTNHPLIAKAIAAPEAEGEQLIKQTYQLGLLSQGLLQGAELSAFIERNMNALVK
protein production: failed

MGIIDRRRRRAVLVVAVVAAVLIFVADALSPIDGAVAVLYTGVVLMVAPLGRKFIVVAGYISAVLALTAFLWGHASDLVGGALLRLVVSLVAILITVLLSMRDRSARISLAEQVRILEASHDTVIIRDSAGIVRYWNEGAERLYGRSRDQAIGRHYAELFDESAPVDEIDRSMREAGSWSGEVVRTRRDGARLILASRWLQRRDPEGRAIGVIEASADLTESRRAQAEQRRSERRYSTIFNSAGFAALECDLSDALSLVLSAGADVAASLRADPALLAAAVERIVICEANPAALEMFDADGPGELIVAELLAFSIPDARQALETIFVALTTGSTQIETETRFITRRGRTIDAVLRLSVLPDGTDWSRVLLMAVDVTERNEARTKIERISAELAHAGRVSVLGQLAASIAHEVNQPLAAIINYGKSGKRWLVRPTSDIGEVAECLDKIVSNANRAAEVVGRVRFLARKSAPLTDSVDLVVMLQDAIELLRREIHSVKATVRVELSTPIAMIDCDRVQVQQVFVNLLMNALQAMRGIDGHRQILVRIEDSGDSLTVAVCDTGVGIAGDPARIFEPFFSTKSDGMGLGLSICRTIIEGQGGQILASNNDGPGATVAFTLLRNNPDEGRHNRRLIS
protein production: failed

MIEGHGDDSYKYRHPIRSNFSSNVYNKVNLDGLRAHLCGRISAISAYPEPEPYTLEARLADRHALPAASVCVTNGATEAIYLIAQTFRGTNTAILMPTFSEYADACRMHGHKVTSLYTLDAVPEDVRMVWLCNPNNPTGEVRDKKYLTELIAKHPRVCFVIDQSYEYFTLKELFTAQEAAGFPNVILLHSMTKRYAIPGLRLGYVTAHPGLIGRLRTNRMPWSVNQLAIEAGLYLLSEGIPAGLSMKDYLAECARLKSSLEAIGGLEVWPTDTHFMLVCLRFGKAAALKEYLAREEGILIRDASNFEGLDERFFRIATQTPEENDELVGAIAKWMAE
protein production: failed

TVAVSQIVEHPALDATRQGLLDGLKAKGYEEGKNLEFDYKTAQGNPAIAVQIARQYVGESPDVLVGIATPSAQALVSATRTIPVVFTAVTDPVGAKLVKSMKQPGKNVTGLSDLSPVAQHVELIQEILPQVKSIGVVFNPGEANAVTLVNLLKESAEAKGIKVVEATALKSADVQSATQAIAAKSDILYAPTDNTVASAIEGMIVAANQAKKPVFGGATSYVEKGAIAGLGFDYYQVGVQTADYVAAILDGQEPGKLDVKVATGSDLVINESAASKLGIQLPSSVVQRATSMQ
protein production: not failed

MESITLDIELLQLPETSPMSMKSNQDFVKKLFDQWLALPETNRLVTSLVNDAKAGVALNVMCGGGSSGTNSGSNSPLASMFPARNGPPLSPRNSTGSPRIARQRTGLSNLSSPLKVVSDHVKELIPQFYFEDGRPPPNDLKEQCIAKINSLFYGHEDGLQLQEFKLVTTEICKVPSFFSTSIFKKVDTNNTGFVKREDFIDYWVKGNMLTKEITSQVFTILKQPDHNYLVQDDFKPVLQELLATHPGLEFLQGTPEFQDRYAETVIYRIYYYINRSGNGHLTLRELKRGNLVDAMQHADEEEDINKVLRYFSYEHFYVIYCKFWELDTDHDFLIDKENLIRYSNHALTYRIVDRIFSQVPRKFTSKTEGKMGYEDFVYFILAEEDKSSEPSLEYWFKCIDLDANGVLTRNELQFFYEEQLHRMECMAQEAVLFEDILCQLFDMVKPEDEGFICLNDLKGSKLSGNVFNILFNLNKFMAFETRDPFLIRQERANPTWTEWDRFAHREYIRLSMEEDVEDASNGSAEAWDDSLEVPF
protein production: failed

MDLWDRFCVNLHTRKITLEDESQKRSMDLRLLHGVAYGHSWFGKWGYRFCSGSFGVEEHHYHRAIAFLTSISLVDDITANFRENKANLNIGDIVRCYRDMSEIQLTTLQDLLRFMLTIKSRAPPIRIPIGKIEAPSVVLPSMKAYGTRACPQVKQCPKDKEKSVKCRKFALPLPLQACFHFPFRSSMTLLSGSFRS
protein production: not failed

MAETIQNFLTEYYSIAIPLSILINIIISLLGFIPSIFLTAINIQLFGVTNGTVISIAGEALGAIISFYIYRMGLQKFTHDKVNKYPKVERLLYVEGREAFLLVLSFRLIPFIPSSIVTLFAALGKMSLLSFSIASTIGKIPALLIEVYSAYHVMNGTNEAKWIVTIAGCIGLYYLWKKWRKK
protein production: failed

MDPFDAGQAQRGNGSTESSGREDREGEEAQWVGVLTHAVLAADDPANLGDSAPAEGGHDQMLEEWAAEEGQNPLEDRQEAVRRVNAWNQGELNLAMLRLTSLPPLPAGLHSLDASFNRLTSLPETLPDALNSLNVNGNQLVSLPALPAGLALLDVWSNRLTSLPETLPAALEGLNVGNNQLTSLPEALPARLESLDVSVNQLTSLPETLPASLGSLDVGVNQLTSLPETLPTSLGRLYLNDNQLTSLPTGLLTQLGAAAEVVVSGNPLPQEMLMNLDTIQSTDGYAGPRVVFDLSETHEDQWEDAAVAPFPLETVAAESLPEAVADWLNGDPKEGDPEVVAKWQSFAEEPGAQQYADFLNGLRNTVNSGNEGFQQGVANDLRQAAANPQLRAQYFQLALDANESCADRRTLTWNGMQTARLIANVENGLYDNNEGVAALVDLGRVMFRLEALGGIAREKVQSLRTGGTINNVDEIEVYLAYQATLRERLGLQHIAPDMNYFYDSHLTEEDIDRAETSVRSKEATGFADYLATDWKPWDDVVLRIEPEHHATMEEKLADALEEEFPGRLKQKLVEAGLIGAEADVVADAEREFGPQVSKDIAREIKGALRDTVLNKRGLSL
protein production: failed

MEGSLSRGVEIMKLRELVARSRSIRRFDEHVAVNDATLRDLVELVCYTPSAANRQLLRFLPVTGADMSDKVFPCLKWAGYLEDWPGPEPGERPAAALVMLCRNEDLPGAACDSGIAAQTIMLGAAEKELGGCIVAAIDRERLMASLGIPDAWTVLLVIALGKPAETVVIDQIKPGDDIRYWRDKHGIHHVPKRQVDELLVTAEQLRERG
protein production: not failed

MNPTTLADVDTVIINANILTLDRDCPHAQAIAFAAGRILALGTTQELSPLAGRAATVVDARGSTLLPGFIDSHSHLMFGGVVAQALDLTEAACLSDLLDMVRSRAQSTPEGEWIRGYGVAAGRLKEKRYPTRQELDQVSGGRPVWLAEDSFHASLVNSKAFRMLEIPLSTPGVELAADGSPTGAFLNDAANVPARQRVFGFISDDEARQMLQHVTQLGATRGVTTVHAFEGSRMSADRDIELLMRFRHELPIHVVPYYETFDVERAMQLGVSGVGGCGRNCLDGMPNIQTAAMVDPYCCSEERGSLFQESIKLHNFVIAAFERGMQVGMHAMGDAAIEQLLATYERAIEETGRTDLRPRIEHFHVPSRDHVRRAADLGVGLAVQPIFTHLWGGRDGIFFERLGERRYKRIDTYREILDSGAIASCGADLPVHPADPLRWIQLLVDNQIDRDQSVSMTEAIRMCTYNGAWLGFQESETGTLAVSKAADAVMLGRDPHQCMPHEIAAIPILKTLGGKLVFESSRPLEHHHHHH
protein production: failed

MREAIIKRAAKELKEGMYVNLGIGLPTLVANEVSGMNIVFQSENGLLGIGAYPLEGSVDADLINAGKETITVVPGASFFNSADSFAMIRGGHIDLAILGGMEVSQNGDLANWMIPKKLIKGMGGAMDLVHGAKKVIVIMEHCNKYGESKVKKECSLPLTGKGVVHQLITDLAVFEFSNNAMKLVELQEGVSLDQVKEKTEAEFEVRL
protein production: failed

MLHRSPKRMVAVALFLACLVISLTTVTFAAPAPTIQIQNPMVEGIRSPLRIASDSLGGVYVSDSLAKGVLKYDVVGHLAQTIKTAAPPQGIAVASDGTLLVGQGTYVSMYSAAGQEIGKLGAGEGQFKMADGITVDDDGSIYVVDCLDNSVQIFNAAGSFVKKFGSFGTTPGKFSTPSGIAFEKVSRQVAVVDTRTGRIQFFDKTGAYVRTIGSFGTNPLRFTAPQGVSFEYSSGSTPVLKRMYVVDTFQSTVQAIDPAATPVFLSYIGTYGSGNGKLMVPSDVLFDQATGRLLVVNGFGNVSVYGVDGGGVSVAVDLIPPALTINPVVSPFMSPTLDLSGTVEAGARLTIATGGTTTVGAISFPTPTTWQTTLSGFAPGGTTITVTARDAANNATNQSVTVSYLQSGPMLTMEPLPTFTADTFQQLSGLVDPGSVVTVTNATTGASAKALVFGNTWSYRLPLAAGANSITVKAEKSMSAATTVSATTTLDAIPPALAVSALADGSYTSGQVQNIQVMVTDANLDVVTLNGQQIVPVNGSYSTAITLKPGPNVIMAAAVDLAGNVTTDIRTIIYDGTRPVVSFTTPAEGTYVTSDHVSVSGIVDETAVVTVAGLPARMDGTSWSADVPLVPGMNTIDVVAVDLAGNVGSVKRTVTYDTEAPALVVSAPSQDVVTNRPTFGFAGNVTDPSPVTLTAEVDGAPVAVTVTDGSFTLAVTFANEGSHAVTFTATDAAGNASRVTRTVIYDGTAPALTLDPVNTPYPSVLTGTVEAGAAVTVEDRNGSAGTVTVSGEKWNAALEVGGYDAASLAVRATDVAGNSTVRSLVVNVPDGDLNGDGAVTVHDVILALRMFTRQMVPTANQLAHGDIGPLYQGKAKPNGVVDLVDAILIMRKALGMPSW
protein production: failed

MTMYADLVLHGGSIATLDDKLEQAQAVAIAAGRIIAVGSDAHCLALAGPGTRRIGLGGACVMPGINDSHCHPDGQAVKAGRWDDVSQVATQQALLARIADFHRRMPAGAWYLGFRFDDTHSGGYPARQALEQAAPGRPVFLLRRDAQVGLASAPALAALLASGLATQVPPHCLDAATGLARGRGVFAFTTHIAAADSLDDYLEGFPTLFAEMGRMGITSVHNALTSALAVQAYRALHGAGRLPVRVGMMLNGRDQRLVDETLAAGLRFGAGDDRLYLLGVEYGSDGSTSGRTAAYYQPYVGEEGGDGRPANRGDVNFSAEDLAAKVGRVMAAGLQAAATGNGDRGIDFALDAFEQGLRAHPGAVPPRIEHCCCAPPAIQQRMAALGVIDSSAAGFAYNLGDAYLRNRPSAEMAWMWPHRDMLDRGVLVCAHSDAPVCERNPFLGMWSMVTRKTASGASLGAGQAITPLEAMRCYTANPARAEGQAARKGTLSPGKLADLIVLDRDPCAVDPDEIRHTQVLATLVGGQATYRAAGAPSWADELPMRE
protein production: failed

MIELLISILTYALISLQSFYRKMDRPAASTIGAALMLAFGVMSLKEAVRAIDYNTIMLLFGMMVLTAYLGIAGFFDWLASKIMGFSGNGKRLLFTIVFSSGFLSALFVNDTICVFMTPVVVRVALSAGISPIPLLIALATSANVGSAVTIIGNPQNMLIGLKSGIGFVQFTAKMLPVGVAGIFIVYSVIYVLYRGELGKLRNGKIEVNLNRRLAAKGLLTFALVLILFVTEFYPVSLSAFIGAAIMFAIGGVKPREALEKVDWGLLLLFCNLFIVMHGFEKSYGEKILSMLSFGESFADYLYFSLLTVAGSNLVSNVPFVMMVLPAAKGAAADFWLILAMASTFAGNLTLIGSVANLIVAESAERHGVHLSFFEYLKAGVPVTFATVLVGALLIYIT
protein production: failed

MTLKTFFNFTRIQTLPAALLSPIAGCLFAFWYFGSFHFWPTLLFFIGLASINLFVSAWNNLMDYQKALDPEYKKWNIIVAKSINPKLALNICLALLAIDVVVGLIVLFLTNLAILPIGGLCFLIAIFYTYGPFAFSRFPLGEILAGLCEGFFGFFLAVYINSYDKGYFFINFDRNWFMTWTWDFKILLPILLVGLMCFVQNFNIMFSDNICDLEQDIRNERYTLPYYLKIPLSLKVFTGLYLFAGLCILIAIALGILPIWSLLMSIIALKVIPNIKKFRAKQSKSETFHLQIDNLMLFNASLALTLLLGIIFK
protein production: failed
